Measurements from the supplement of paper PMC11780869.

Test system: Bacillus subtilis
Experiment: cleaved RNA product abundance (RNA/gDNA barcode ratio) relative to median wild-type variant (ratio to wild type); higher = more accumulation of the downstream cleavage product
Procedure: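 MPRA in B. subtilis. Mutagenized RNase Y cleavage-site regions (9% mutation rate) were inserted into a barcoded reporter mRNA (truncated aprE or tetM). Cells were grown in LB at 37°C to OD600 0.3. The cleaved RNA isoform was gel-purified and its barcodes counted; the RNA:gDNA barcode ratio was normalised to the median wild-type variant, and the median over barcodes is reported per variant. The printed sequence is the variable window only; the reporter flanks are not printed.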

[1] = experiment (reporter, strain, medium): exp 8a: truncated aprE reporter, strain BJT201 with 2% xylose (RNase J1 expressed), cleavage site: glnRA (positions -5 to +31 mutated)
[2] = experiment (reporter, strain, medium): exp 2b: truncated aprE reporter, strain BJT200, cleavage site: cggR-gapA (positions -7 to +36 mutated)
[3] = experiment (reporter, strain, medium): exp 4a: truncated aprE reporter, strain BJT201 with 2% xylose (RNase J1 expressed), cleavage site: cggR-gapA (positions -7 to +36 mutated)
[4] = experiment (reporter, strain, medium): exp 6: tetM reporter, strain 168, cleavage site: cggR-gapA (positions -7 to +36 mutated)

Row | Sequence | cleaved RNA product abundance [3] | other results
1 | CGACATGTCCCGCTTCTTTCATTAATCCGTTAGCAATTTTTTTGCTATATACATTTACCTTTTAAGAGGAGGAAT | – | cleaved RNA product abundance [1]: 1.16
2 | CGACATGTCCCGCTTCTTTCATTAATCCCTTAGCAACTATTTTGCTATATACATTTACCTTTTAAGAGGAGGAAT | – | cleaved RNA product abundance [1]: 0.323
3 | ACAGACGAAGGAGCCGCAAAGAAGTTATTAAGGGATGAATACTCCCTCTATATAAATATCTCTCACTTATTTAAA | 0.259 | cleaved RNA product abundance [2]: 0.275
4 | CGACATGTCCCGCTTCTTTCATTAATCCGTTAGCAAATGTTTTCCTATATACACTTACCTTTTAAGAGGAGGAAT | – | cleaved RNA product abundance [1]: 0.377
5 | ACAGACGAAGGAGCCGCAAAGAAGTTATTAAGGCATGAATAATCCGTCAATATAAATATCTCTCACTTATTTAAA | 0.0753 | –
6 | ACAGACGAAGGAGCCGCAAAGAAGTTATTAAGGGATGAATAATTCATCAATATAAATATCTCTCACTTATTTAAA | 0.201 | –
7 | ACAGACGAAGGAGCCGCAAAGAAGTTGTTAAGGGATAAATAATCCCTCAATATAAATATCTCTCACTTATTTAAA | 0.688 | cleaved RNA product abundance [2]: 0.279
8 | ACAGACGAAGGAGCCGCAAAGAAGTAATTAAGTGATGAATAATCCCTCAATATAAATATCTCTCACTTATTTAAA | 0.0789 | –
9 | CGACATGTCCCGCTTCTTTCATTAATCCGTTAGCAACTGTTTTACTATATACATTTACATTTTAAGAGGAGGAAT | – | cleaved RNA product abundance [1]: 0.688
10 | ACAGACGAAGGAGCCGAAAAGAAGTTATTAAGGGATGAATAATCCCTCAATATAAATATCTCTCACTTATTTAAA | – | cleaved RNA product abundance [4]: 0.794
11 | ACAGACGAAGGAGCCGCAAAGAAGTTATTAAGGGATCAATAATCCCTCAATATAAATCTCTCTCACTTATTTAAA | 0.706 | –
12 | ACAGACGAAGGAGCCGCAAAGAAGTTATTAAGGGATGAATAATCCGTCAATATCAATATCTCTCACTTATTTAAA | 0.15 | –
13 | ACAGACGAAGGAGCCGCAAAGTAGTTATTAAGGTATGAATAATCCCTCAATATAAATATCTCTCACTTATTTAAA | 0.0907 | –
14 | ACAGACGAAGGAGCCGCAAAGTAGTTATTAAGGGATGAATAATCCCTAAATATAAATATCTCTCACTTATTTAAA | 0.55 | –
15 | CGACATGTCCCGCTTCTTTCATTAATCCGTTAGCAATTGTTTTGCTATAGACATTTACCTTTTAAGAGGAGGAAT | – | cleaved RNA product abundance [1]: 0.345
16 | ACAGACGAAGGAGCCGCGAAGAAGTTATTAAGGGATGAATAATCCCACAATATAAATATCTCTCACTTATTTAAA | 0.227 | cleaved RNA product abundance [2]: 0.17
17 | ACAGACGAAGGAGCCGCAATGTAGTTATTAAGGGATGAATAATCCCTCAATATAAATATCTCTCACTTATTTAAA | 1.43 | –
18 | ACAGACGAAGGAGCCGCAAAGAAGTTATTAAGGGCTGAATAATCCCTCAATATAAATATCTCTCACTTATTTAAA | 0.593 | cleaved RNA product abundance [2]: 0.587; cleaved RNA product abundance [4]: 0.473
19 | CGACATGTCCCGCTTCTTTCATTAATCCGTTAACAACTGTTTTGCTATATACATATACCTTTTAAGAGGAGGAAT | – | cleaved RNA product abundance [1]: 0.195
20 | CGACATGTCCCGCTTCTTTCATTATTCCGTTAACAACTATTTTGCTATATACATTTACCTTTTAAGAGGAGGAAT | – | cleaved RNA product abundance [1]: 0.283

Row | Sequence | cleaved RNA product abundance [3] | other results
21 | ACAGACGAAGGAGCCGCAAAGAAGTTATTAACGGATTAATAATCCCTCAATATAAATATCTCTCACTTATTTAAA | 0.141 | cleaved RNA product abundance [2]: 0.121
22 | ACAGACGAAGGAGCCGCAAAGAAGTTATTAAGCGATGAATAATCCCTCAATAAAAATATCTCTCACTTATTTAAA | 0.0528 | –
23 | ACAGACGAAGGAGCCGCAAAGAAGTTATTAAGGGATGAATAATGCCTAAATATAAATATCTCTCACTTATTTAAA | 0.149 | –
24 | ACAGACGAAGGAGCCGCAAAGAAGTTATTAAGGGATGAATAATCCCTCTAAATAAATATCTCTCACTTATTTAAA | 0.429 | cleaved RNA product abundance [2]: 0.36
25 | ACAGACGAAGGAGCCGCAAAAAAGTTATTAAGGGATGAATAATACCTCAATATAAATATCTCTCACTTATTTAAA | 0.17 | cleaved RNA product abundance [2]: 0.139
26 | ACAGACGAAGGAGCCGCAAAGAAGTTATTAAATGATGAATAATCCATCAATATAAATATCTCTCACTTATTTAAA | 0.162 | –
27 | ACAGACGAAGGAGCCGCAAAGAAGTTATTAAGGGATGGATAATACCTCAATATAAATATCTCTCACTTATTTAAA | 0.103 | –
28 | ACAGACGAAGGAGCCGCAAAGAAGTTATTAAGGGCTGAATAATCCCTCAATATAAATAACTCTCACTTATTTAAA | 0.729 | –
29 | ACAGACGAAGGAGCCGCAAAGAAGTTATTAAGTGATGAATAATCCCTCAATATACATATCTCTCACTTATTTAAA | 0.19 | cleaved RNA product abundance [2]: 0.0962
30 | ACAGACGAAGGAGCCGCAAAGAAGTTATTAAGGCATGAATAATCCCTCAATATACATATCTCTCACTTATTTAAA | 0.129 | cleaved RNA product abundance [2]: 0.112
31 | CGACATGTCCCGCTTCTTTCATTAATCCGTTAGAAACTGTTTTGCTATATACTTTTACCTTTTAAGAGGAGGAAT | – | cleaved RNA product abundance [1]: 0.217
32 | ACAGACGAAGGAGCCGCAAAGAAGTTATGAAGAGATGAATAATCCCTCAATATAAATATCTCTCACTTATTTAAA | 0.0998 | –
33 | ACAGACGAAGGAGCCGCAAGAAGTTATTAGGGGATGAATAATCCCTCAATATAAATATCTCTCACTTATTTAAAG | 0.817 | –
34 | CGACATGTCCCGCTTCTTTCATTAATACGTTAGCAACTGTTTTGCTATATACATTCACCTTTTAAGAGGAGGAAT | – | cleaved RNA product abundance [1]: 0.695
35 | ACAGACGAAGGAGCCGCAAAGAAGTTATTAAGGGATAGATAATCCCTCAATATAAATATCTCTCACTTATTTAAA | 0.791 | –
36 | ACAGACGAAGGAGCCGCAAAGAAGTTATTTAGGGATGATTAATCCCTCAATATAAATATCTCTCACTTATTTAAA | 0.659 | –
37 | CGACATGTCCCGCTTCTTTCATTAATGCGTTAGCAACTGTTTTGCTATATAGATTTACCCTTTAAGAGGAGGAAT | – | cleaved RNA product abundance [1]: 0.761
38 | ACAGACGAAGGAGCCGCAAAGAACTTATTAAGGGACGAATAATCCCTCAATATAAATATCTCTCACTTATTTAAA | 0.389 | cleaved RNA product abundance [2]: 0.375
39 | ACAGACGAAGGAGCCGCATAGAAGTTATTAAGGGATGAAGAATCCCTCAATATAAATATCTCTCACTTATTTAAA | 0.861 | –
40 | ACAGACGAAGGAGCCGCAAAGAAGTCATTAAGGGATGTATAATCCCTCAATATAAATATCTCTCACTTATTTAAA | – | cleaved RNA product abundance [2]: 0.16

Row | Sequence | cleaved RNA product abundance [3] | other results
41 | ACAGACGAAGGAGCCGCAAACAAGTTATTAAGGGATGAATAATCCCTCAATATAAATAACTCTCACTTATTTAAA | – | cleaved RNA product abundance [2]: 0.576
42 | CGACATGTCCCGCTTCTTTCATTAATCCGTTAACAACTGTTTTGGTATATACATATAGCTTTTAAGAGGAGGAAT | – | cleaved RNA product abundance [1]: 0.275
43 | CGACATGTCCCGCTTCTTTCATTAATCCGTTAGCAACTGTTTGGCTATATACATTTACGTTTTAAGAGGAGGAAT | – | cleaved RNA product abundance [1]: 0.403
44 | ACAGACGAAGGAGCCGCAAAGAAGTTATTAAGGTATAAATAATCCCTCAATATAAATATCTCTCACTTATTTAAA | 0.112 | cleaved RNA product abundance [2]: 0.0876
45 | CGACATGTCCCGCTTCTTTCATTAATCCGTTGGCAACTGTTTTGCTATAAACATTTACCTTTTAAGAGGAGGAAT | – | cleaved RNA product abundance [1]: 0.509
46 | CGACATGTCCCGCTTCTTTCATTAATCCGTTAGCATCTGTTTTGCTATATTCATTTACCTTTTAAGAGGAGGAAT | – | cleaved RNA product abundance [1]: 0.31
47 | ACAGACGAAGGAGCCGCAAAAAAGTTATTAAGGGATGAATAATCCCTCAAAATAAATATCTCTCACTTATTTAAA | 0.376 | cleaved RNA product abundance [2]: 0.349
48 | CGACATGTCCCGCTTCTTTCATTAATCTTTTAGCAACTGTTTTACTATATACATTTACCTTTTAAGAGGAGGAAT | – | cleaved RNA product abundance [1]: 0.94
49 | ACAGACGAAGGAGCCGCAAAGAAGTTATTAAGGGAAGAATAAACCCTCAATATAAATATCTCTCACTTATTTAAA | 0.27 | cleaved RNA product abundance [2]: 0.301
50 | ACAGACGAAGGAGCCGCAAAGAAGTTATTATGGGACGAATAATCCCTCAATATAAATATCTCTCACTTATTTAAA | 0.174 | –
51 | ACAGACGAAGGAGCCGCAAAGAAGTTATTAAGGGATGAATAATCCCTCAAAATAGATATCTCTCACTTATTTAAA | 0.322 | –
52 | ACAGACGAAGGAGCCGCAAAGAAATTATTAAGGAATGAATAATCCTTCAATATAAATATCTCTCACTTATTTAAA | 0.153 | –
53 | ACAGACGAAGGAGCCGCAAAGAAGTTATTAAGGGATGAATAATCACTCAATAAAAATATCTCTCACTTATTTAAA | 0.0861 | –
54 | ACAGACGAAGGAGCCGCAAAGAAGTTATTAGGGGATGAATAATACCTCAATATAAATATCTCTCACTTATTTAAA | 0.211 | –
55 | ACAGACGAAGGAGCCGGAAAGAAGTTATTAAGGGATGAATAATCCCTCAATATAAATATCTCTCACTTATTTAAA | – | cleaved RNA product abundance [4]: 0.897
56 | ACAGACGAAGGAGCCGCAAAGAAGTTATTAAGGGATGAATATTCCCTCAAAATAAATATCTCTCACTTATTTAAA | 0.224 | cleaved RNA product abundance [2]: 0.231
57 | ACAGACGAAGGAGCCGCAAAAAAGATATTAAGGGATGAATAATCCCTCAATATAAATATCTCTCACTTATTTAAA | 0.913 | cleaved RNA product abundance [4]: 0.421
58 | CGACATGTCCCGCTTCTTTCATTAATCCGTTAGAAACTGTTGTGCTATATACATTTACCTTTTAAGAGGAGGAAT | – | cleaved RNA product abundance [1]: 0.361
